The experiment concerns the target Atg17 (Lachancea thermotolerans), crystallised construct (Lachancea thermotolerans). The experiment in a line: SEC-MALS.

As for “Atg17 (Lachancea thermotolerans), crystallised construct (natural protein)”, the stoichiometry N came out at 2.
